Measured values: patent publication US20040037843A1
Like-named read-outs stand apart in the source and are kept apart here. One block for each binder: values may come before it. Ends that are not written are not given here.

Key:
HLA-A*0203 (human) [1] = details: remark: other sources report otherwise
HLA-A*0201 (human) [2] = details: remark: other sources report otherwise
HLA-A*0206 (human) [3] = details: remark: other sources report otherwise
HLA-A*0203 (human) [4] = experiment: inhibition of 125I probe peptide binding to purified HLA; details: remark: other sources report otherwise
HLA-A*0201 (human) [5] = experiment: as above; details: remark: other sources report otherwise
HLA-A*0206 (human) [6] = experiment: as above; details: remark: other sources report otherwise
HLA-A*6802 (human) [7] = experiment: as above; details: remark: other sources report otherwise
HLA-A*0202 (human) [8] = experiment: competition with 125I probe peptide on purified HLA, gel filtration; details: remark: other sources report otherwise
HLA-A*0202 (human) [9] = details: remark: other sources report otherwise
HLA-A*6802 (human) [10] = details: remark: other sources report otherwise
HLA-A*0203 (human) [11] = experiment: competition with 125I probe peptide on purified HLA, gel filtration; details: remark: other sources report otherwise
HLA-A*0201 (human) [12] = experiment: as above; details: remark: other sources report otherwise
HLA-A*0202 (human) [13] = experiment: inhibition of 125I probe peptide binding to purified HLA, gel filtration; details: remark: other sources report otherwise
HLA-A*0201 (human) [14] = experiment: as above; details: remark: other sources report otherwise
HLA-A*0206 (human) [15] = experiment: as above; details: remark: other sources report otherwise
[16] = molecular target: HLA-A*2401 (purified HLA class I molecule) (human); experiment: competition with 125I-labelled standard peptide for purified HLA, gel filtration
HLA-A*2401 (human) [17] = experiment: competition with 125I-labelled probe peptide for purified HLA, gel filtration
HLA-A*0202 (human) [18] = experiment: competition with 125I-labelled standard peptide for purified HLA, gel filtration; details: remark: other sources report otherwise
HLA-A*0203 (human) [19] = experiment: as above; details: remark: other sources report otherwise
HLA-A*0201 (human) [20] = experiment: as above; details: remark: other sources report otherwise
HLA-A*0206 (human) [21] = experiment: as above; details: remark: other sources report otherwise
HLA-A*2401 (human) [22] = molecular target: HLA-A*2401 (human)
[23] = molecular target: HLA-A*2401 (purified HLA class I molecule) (human)
HLA-A*2401 (human) [24] = experiment: competition with 125I-labelled probe peptide for purified HLA, gel filtration; remark: listed apart in the source
HLA-A*2401 (human) [25] = molecular target: HLA-A*2401 (human); remark: listed apart in the source
[26] = scale: ratio to standard peptide

Binder: SLQCVSLHV [peptide 1418.19 (HuK2.170.V9)]
IC50 (HLA-A*0203 (human) [1]): 48 nM | IC50 (HLA-A*0201 (human) [2]): 56 nM | IC50 (HLA-A*0206 (human) [3]): 4110 nM

Binder: ALFPPEGVSV [Peptide 1419.61 … (PAP.122.V10)]
IC50 (HLA-A*0202 (human) [8]): 1 nM

Binder: KLQCVDLHVV [Peptide 63.0058 (PSA.166.V10)]
IC50 (HLA-A*0206 (human) [15]): 500 nM

Binder: DLMLLRLSEPV [Peptide 63.0109 (PSA.116.V11)]
IC50 (HLA-A*0201 (human) [14]): 50 nM

Binder: SLQCVSLHL [peptide 60.0191 (HuK2.170, 9-mer)]
IC50 (HLA-A*0202 (human) [9]): 51 nM | IC50 (HLA-A*0203 (human) [1]): 417 nM | IC50 (HLA-A*0201 (human) [2]): 500 nM | IC50 (HLA-A*6802 (human) [10]): 2580 nM

Binder: HYRKWIKDTI [Kallikrein position 248, 10 amino acids (…)]
relative binding ratio (IC50 of standard peptide / IC50 of test peptide) (HLA-A*2401 (human) [25]): 0.055

Binder: GWGSIEPEEF [Kallikrein position 156, 10 amino acids (…)]
relative binding ratio (IC50 of standard peptide / IC50 of test peptide) (HLA-A*2401 (human) [25]): 0.0001

Binder: FFWLDRSVL [PAP (prostatic acid phosphatase) peptide, position 23, 9 amino acids]
relative binding ratio (IC50 of standard peptide / IC50 of test peptide) [23]: 0.0017

Binder: ALDVYNGLL [Peptide 1177.02 … (PAP.299)]
IC50 (HLA-A*0203 (human) [11]): 256 nM | IC50 (HLA-A*0201 (human) [12]): 73 nM

Binder: LYCESVHNF [PAP position 213, 9 amino acids]
relative binding ratio (IC50 of standard peptide / IC50 of test peptide) [16]: 0.44 | relative binding ratio (IC50 of standard peptide / IC50 of test peptide) (HLA-A*2401 (human) [17]): 0.44

Binder: SLLAKELKFV [Peptide 63.0033 … (PAP.29.L2)]
IC50 (HLA-A*0203 (human) [4]): 3.8 nM | IC50 (HLA-A*6802 (human) [7]): 6670 nM

Binder: RYRKFLNESY [PAP peptide, position 88, 10 amino acids (A24 supermotif)]
relative binding ratio (IC50 of standard peptide / IC50 of test peptide) (HLA-A*2401 (human) [22]): 0.0057

Binder: SVGCTGAVPV [peptide 1418.35 (HuK2.11.V10)]
IC50 (HLA-A*0203 (human) [1]): 154 nM | IC50 (HLA-A*0201 (human) [2]): 104 nM | IC50 (HLA-A*0206 (human) [3]): 552 nM

Binder: VISNDVCAQV [PSA position 174, 10 amino acids]
relative binding ratio (IC50 of standard peptide / IC50 of test peptide) (HLA-A*0201 (human) [20]): 0.0008

Binder: LTLSVTWIGA [PSA peptide, position 4, 10 amino acids]
relative binding ratio (HLA-A*0202 (human) [18]; [26]): 0.045 | relative binding ratio (HLA-A*0203 (human) [19]; [26]): 0.082 | relative binding ratio (HLA-A*0201 (human) [20]; [26]): 0.0018 | relative binding ratio (HLA-A*0206 (human) [21]; [26]): 0.011

Binder: IALSVGCTGAV [Kallikrein position 8, 11 amino acids]
relative binding ratio (HLA-A*0202 (human) [18]): 0.0032 | relative binding ratio (HLA-A*0203 (human) [19]): 0.027 | relative binding ratio (HLA-A*0201 (human) [20]): 0.0009 | relative binding ratio (HLA-A*0206 (human) [21]): 0.01

Binder: LFPPEGVSI [PAP position 123, 9 amino acids]
relative binding ratio (IC50 of standard peptide / IC50 of test peptide) [16]: 0.0033 | relative binding ratio (IC50 of standard peptide / IC50 of test peptide) (HLA-A*2401 (human) [17]): 0.0033

Binder: SLQCVSLHLL [peptide 1419.66 (HuK2.170, 10-mer)]
IC50 (HLA-A*0202 (human) [9]): 4.9 nM | IC50 (HLA-A*0201 (human) [2]): 263 nM | IC50 (HLA-A*0206 (human) [3]): 446 nM | IC50 (HLA-A*6802 (human) [10]): 5000 nM

The next lines start with the values.

IC50 (HLA-A*0203 (human) [4]): 37 nM | IC50 (HLA-A*0201 (human) [5]): 385 nM | IC50 (HLA-A*0206 (human) [6]): 3700 nM | IC50 (HLA-A*6802 (human) [7]): 6670 nM
Binder: TLMSAMTNLA [Peptide 20.0312 … (PAP.112)]

IC50 (HLA-A*0202 (human) [9]): 1.3 nM | IC50 (HLA-A*0203 (human) [1]): 5.3 nM | IC50 (HLA-A*0206 (human) [3]): 37 nM | IC50 (HLA-A*6802 (human) [10]): 860 nM
Binder: HLLSNDMCARV [peptide 1418.67 (HuK2.177.V11)]

IC50 (HLA-A*0202 (human) [8]): 269 nM | IC50 (HLA-A*0203 (human) [11]): 909 nM | IC50 (HLA-A*0201 (human) [12]): 455 nM
Binder: GVSIWNPIV [Peptide 60.0207 … (PAP.128.V9)]

IC50 (HLA-A*0202 (human) [13]): 159 nM | IC50 (HLA-A*0201 (human) [14]): 385 nM | IC50 (HLA-A*0206 (human) [15]): 2850 nM
Binder: VVFLTLSVTWI [Peptide 1419.25 (PSA.1)]

relative binding ratio (IC50 of standard peptide / IC50 of test peptide) [16]: 0.014 | relative binding ratio (IC50 of standard peptide / IC50 of test peptide) (HLA-A*2401 (human) [17]): 0.014
Binder: LFPPEGVSIW [PAP position 123, 10 amino acids]

IC50 (HLA-A*0206 (human) [6]): 86 nM | IC50 (HLA-A*6802 (human) [7]): 2290 nM
Binder: VLAKELKFVV [Peptide 63.0034 … (PAP.30.V10)]

relative binding ratio (IC50 of standard peptide / IC50 of test peptide) [16]: 2.5 | relative binding ratio (IC50 of standard peptide / IC50 of test peptide) (HLA-A*2401 (human) [17]): 2.5
Binder: LYFEKGEYF [PAP position 318, 9 amino acids]

relative binding ratio (HLA-A*0202 (human) [18]; [26]): 0.08 | relative binding ratio (HLA-A*0203 (human) [19]; [26]): 0.028 | relative binding ratio (HLA-A*0201 (human) [20]; [26]): 0.003 | relative binding ratio (HLA-A*0206 (human) [21]; [26]): 0.002
Binder: LLSNDMCARA (not fully specified) [Kallikrein (human kallikrein2) peptide, position 178, 10 amino acids]

IC50 (HLA-A*0202 (human) [13]): 518 nM | IC50 (HLA-A*0201 (human) [14]): 69 nM | IC50 (HLA-A*0206 (human) [15]): 128 nM
Binder: KVTKFMLCV [Peptide 60.0220 (PSA.187.V9)]

relative binding ratio (IC50 of standard peptide / IC50 of test peptide) (HLA-A*2401 (human) [22]): 0.26
Binder: SYKHEQVYI [PAP peptide, position 96, 9 amino acids (A24 supermotif)]

relative binding ratio (IC50 of standard peptide / IC50 of test peptide) [23]: 0.0016
Binder: GFLFLLFFW [PAP (prostatic acid phosphatase) peptide, position 17, 9 amino acids]

relative binding ratio (IC50 of standard peptide / IC50 of test peptide) (HLA-A*2401 (human) [17]): 0.0045 | relative binding ratio (IC50 of standard peptide / IC50 of test peptide) (HLA-A*2401 (human) [24]): 0.0045
Binder: LFFWLDRSVL [PAP position 22, 10 amino acids]

relative binding ratio (IC50 of standard peptide / IC50 of test peptide) (HLA-A*0202 (human) [18]): 0.022 | relative binding ratio (IC50 of standard peptide / IC50 of test peptide) (HLA-A*0203 (human) [19]): 0.052 | relative binding ratio (IC50 of standard peptide / IC50 of test peptide) (HLA-A*0201 (human) [20]): 0.0084 | relative binding ratio (IC50 of standard peptide / IC50 of test peptide) (HLA-A*0206 (human) [21]): 0.0037
Binder: PTQEPALGTT [Kallikrein position 142, 10 amino acids]

IC50 (HLA-A*0202 (human) [13]): 8.4 nM
Binder: FLTLSVTWV [Peptide 60.0216 (PSA.3.V9)]

relative binding ratio (IC50 of standard peptide / IC50 of test peptide) (HLA-A*2401 (human) [22]): 0.0013
Binder: SWPQGFGQL [PAP peptide, position 62, 9 amino acids (A24 supermotif)]

IC50 (HLA-A*0202 (human) [9]): 0.8 nM | IC50 (HLA-A*0203 (human) [1]): 10 nM | IC50 (HLA-A*0201 (human) [2]): 8.6 nM | IC50 (HLA-A*0206 (human) [3]): 2310 nM | IC50 (HLA-A*6802 (human) [10]): 2160 nM
Binder: SLHLLSNDMCV [peptide 1418.66 (HuK2.175.V11)]

relative binding ratio (HLA-A*0202 (human) [18]): 0.012 | relative binding ratio (HLA-A*0203 (human) [19]): 0.0096 | relative binding ratio (HLA-A*0201 (human) [20]): 0.001 | relative binding ratio (HLA-A*0206 (human) [21]): 0.0001
Binder: ITSWGSEPCAL (not fully specified) [PSA position 222, 11 amino acids]

relative binding ratio (HLA-A*0201 (human) [20]; [26]): 0.0023 | relative binding ratio (HLA-A*0206 (human) [21]; [26]): 0.0002
Binder: LLRLSEPAELT [PSA peptide, position 119, 11 amino acids]

relative binding ratio (IC50 of standard peptide / IC50 of test peptide) [23]: 0.0007
Binder: GFLFLLFFWL [PAP (prostatic acid phosphatase) peptide, position 17, 10 amino acids]

IC50 (HLA-A*0201 (human) [14]): 89 nM | IC50 (HLA-A*0206 (human) [15]): 336 nM
Binder: VVFLTLSVTWV [Peptide 63.0185 (PSA.1.V11)]

IC50 (HLA-A*0201 (human) [2]): 200 nM | IC50 (HLA-A*6802 (human) [10]): 5000 nM
Binder: LMLLRLSEPA [peptide 63.0014 (HuK2.121)]

relative binding ratio (IC50 of standard peptide / IC50 of test peptide) (HLA-A*2401 (human) [25]): 0.0024
Binder: IWSKVYDPL [PAP position 205, 9 amino acids (…)]

relative binding ratio (IC50 of standard peptide / IC50 of test peptide) [23]: 0.0067
Binder: EYIRKRYRKF [PAP (prostatic acid phosphatase) peptide, position 83, 10 amino acids]

IC50 (HLA-A*0202 (human) [8]): 0.9 nM
Binder: GLHGQDLFGI [Peptide 1166.11 … (PAP.196)]
